# Like-named read-outs stand apart in the source and are kept apart here. Residues, ends and D or L forms follow the SMILES beside them.
# T1: porcine epidemic diarrhea virus S protein (PEDV-S1) (porcine epidemic diarrhea virus)
# T1 chain: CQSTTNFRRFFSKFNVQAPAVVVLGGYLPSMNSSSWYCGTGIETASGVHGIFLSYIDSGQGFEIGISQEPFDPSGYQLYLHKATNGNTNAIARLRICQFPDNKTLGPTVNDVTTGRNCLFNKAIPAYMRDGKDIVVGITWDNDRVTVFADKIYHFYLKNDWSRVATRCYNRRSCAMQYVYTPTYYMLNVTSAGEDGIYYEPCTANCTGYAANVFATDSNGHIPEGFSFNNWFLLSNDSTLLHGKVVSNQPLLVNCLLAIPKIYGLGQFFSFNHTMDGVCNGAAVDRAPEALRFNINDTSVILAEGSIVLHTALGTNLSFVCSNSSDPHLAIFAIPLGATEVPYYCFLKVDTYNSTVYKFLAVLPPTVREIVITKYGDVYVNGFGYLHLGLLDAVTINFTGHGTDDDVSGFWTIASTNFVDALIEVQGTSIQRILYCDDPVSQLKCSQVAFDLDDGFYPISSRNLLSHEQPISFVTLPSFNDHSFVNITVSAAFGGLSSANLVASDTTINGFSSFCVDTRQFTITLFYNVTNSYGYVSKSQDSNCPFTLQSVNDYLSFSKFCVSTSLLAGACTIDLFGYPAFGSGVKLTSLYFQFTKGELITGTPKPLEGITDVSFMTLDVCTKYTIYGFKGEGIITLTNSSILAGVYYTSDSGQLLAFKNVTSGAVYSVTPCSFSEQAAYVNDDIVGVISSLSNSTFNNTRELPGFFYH
# Tests used:
# PEDV S1 protein = PEDV S1 protein (Porcine epidemic diarrhea virus, UniProt Q91AV1); assay: SPR kinetic measurement (Biacore X100, CM5 chip); type: binding
# Vero cells = assay: Cytotoxicity assay (CCK-8); type: cell-based, African green monkey
# [1] = target: T1, porcine epidemic diarrhea virus S …; assay: SPR; conditions: both partners purified
# [2] = target: T1, porcine epidemic diarrhea virus S …; assay: ELISA; conditions: both partners purified
# [3] = SPR, 1:1 binding fit, peptide 0.78125-25 μM, HBS-EP pH 7.4, 30 μL/min, 120 s association, 120 s dissociation
molecule,measurement,setting,value
C[C@H](NC(=O)[C@H](CCC(=O)O)NC(=O)[C@H](CCCCN)NC(=O)[C@H](Cc1c[nH]c2ccccc12)NC(=O)[C@@H](N)Cc1ccccc1)C(=O)N[C@@H](CCCCN)C(=O)O [compound 110616] (H-FWKEAK-OH),Kd,PEDV S1 protein,772 nM
N=C(N)NCCC[C@H](NC(=O)[C@H](CCCCN)NC(=O)[C@H](CO)NC(=O)[C@H](CCCCN)NC(=O)[C@H](Cc1c[nH]c2ccccc12)NC(=O)[C@@H](N)Cc1ccccc1)C(=O)O [compound 110766],Kd,PEDV S1 protein,216 nM
same,Cell viability (CCK-8),"Vero cells; 0.78125-400 µM, 24 h at 37 °C, normalized to control without peptide",over 90%
same,Cytotoxicity (in words),Vero cells; CCK-8,not toxic to vero cells
N=C(N)NCCC[C@H](NC(=O)[C@H](CC(N)=O)NC(=O)[C@H](Cc1ccccc1)NC(=O)[C@H](Cc1c[nH]cn1)NC(=O)[C@@H](N)Cc1c[nH]c2ccccc12)C(=O)N1CCC[C@H]1C(=O)O [compound 115042] (H-WHFNRP-OH),Kd,PEDV S1 protein,6520 nM
FWKQNKFLFWKQNKCL [compound 110490],Ka,PEDV S1 protein; [3],5743 M⁻¹ s⁻¹
same,Kd,PEDV S1 protein; [3],0.03522 s⁻¹
FWKQNKFLFWKQNKCL [peptide 110490],Kd,[1],1500 nM
same,koff,[1],0.0352 s⁻¹
same,kon,[1],5740 M⁻¹ s⁻¹
same,P/N value,[2],> 67.9
FWKSKR [peptide 110766],Kd,[1],216 nM
WHFNRP [peptide 115042],Kd,[1],6520 nM
same,koff,[1],0.0225 s⁻¹
same,kon,[1],3450 M⁻¹ s⁻¹
same,P/N value,[2],> 67.9
FWKEAK [peptide 110616],Kd,[1],772 nM
same,koff,[1],0.0236 s⁻¹
same,kon,[1],30500 M⁻¹ s⁻¹
same,P/N value,[2],> 67.9
